The supplement of paper PMC7877785
± gives the uncertainty stated by the source.

Assay: self-splicing fitness, log relative to wild type (ln ratio); higher = more splicing; Tetrahymena group I intron in knt gene, E. coli kanamycin selection, DiMSum; sequences stand for … in CUCUCU…GGAGGGAAAAGUUAUCAGGCAUGCACCUGGUAGCUAGUCUUUAAACCAAUAGAUUGCAUCGGUUUAAAAGGCAAGACCGUCAAAUUGCGGGAAAGGGGUCAACAGCCGUUCAGUACCAAGUCUCAGGGGAAACUUUGAGAUGGCCUUGCAAAGGGUAUGGUAAUAAGCUGACGGACAUGGUCCUAACCACGCAGCCAAGUCCUAAGUCAACAGAUCUUCUGUUGAUAUGGAUGCAGUUCACAGACUAAAUGUCGGUCGGGGAAGAUGUAUUCUUCUCAUAAGAUAUAGUCGGACCUCUCCUUAAUGGGAGCUAGCGGAUGAAGUGAUGCAACACUGGAGCCGCUGGGAACUAAUUUGUAUGCGAAAGUAUAUUGAUUAGUUUUGGAGUACUCGUGGUCG
In short: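 Colonies from six replicate transformations of E. coli BL21(DE3) were pooled and amplicon-sequenced on an Illumina HiSeq 2500. The library placed an intron with all eight P1ex-region nucleotides randomised inside the knt kanamycin-resistance gene on pET-22b(+), and cells grew overnight at 37°C or 30°C on LB agar with or without 25 μg/mL kanamycin (plus 100 μg/mL carbenicillin, 50 μM IPTG, 0.2% rhamnose). Fitness is the DiMSum error-weighted combination of wild-type-normalised replicate fold changes, kanamycin versus none.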

Sequence	self-splicing fitness (ln) (30 °C)	self-splicing fitness (ln) (37 °C)
ACGGAGCAAUAUUACGGGCU	-2.7 ± 0.25	-2.43 ± 0.27
ACGGAGCAAUAUUACGUAUC	-2.75 ± 0.2	-2.52 ± 0.29
ACGGAGCAAUAUUACGUCGU	-2.98 ± 0.26	-2.48 ± 0.19
ACGGAGCAAUAUUACGUGGU	-3.91 ± 0.4	-1.08 ± 0.2
ACGGAGCAAUAUUACGUGUA	-3.72 ± 0.29	-3.03 ± 0.23
ACGGAGCAAUAUUACGUUCG	-1.33 ± 0.097	-0.333 ± 0.13
ACGGAGCAAUAUUACGUUCU	-3.16 ± 0.31	-2.52 ± 0.22
ACGGAGCAAUAUUACGUUUG	-2.3 ± 0.12	-2.31 ± 0.19
ACGUAGCAAUAUUACGAAGG	-2.19 ± 0.21	-3.97 ± 0.46
ACGUAGCAAUAUUACGAAGU	-2.97 ± 0.2	-2.86 ± 0.21
ACGUAGCAAUAUUACGACAC	-1.46 ± 0.21	-0.658 ± 0.18
ACGUAGCAAUAUUACGACGU	-2.97 ± 0.15	-2.31 ± 0.19
ACGUAGCAAUAUUACGAGAC	-2.37 ± 0.3	–
ACGUAGCAAUAUUACGCACA	-0.463 ± 0.12	-0.501 ± 0.13
ACGUAGCAAUAUUACGCAUA	-1.82 ± 0.13	-1.2 ± 0.12
ACGUAGCAAUAUUACGCCAG	-1.59 ± 0.18	-2.19 ± 0.45
ACGUAGCAAUAUUACGCCUC	-2.48 ± 0.38	-2.16 ± 0.41
ACGUAGCAAUAUUACGCGCA	-0.687 ± 0.076	-0.337 ± 0.097
ACGUAGCAAUAUUACGGAAG	-3.32 ± 0.3	-1.91 ± 0.28
ACGUAGCAAUAUUACGGAAU	-2.29 ± 0.15	-2.07 ± 0.17
ACGUAGCAAUAUUACGGACG	-1.88 ± 0.17	-0.579 ± 0.13
ACGUAGCAAUAUUACGGAUC	-1.97 ± 0.096	-0.313 ± 0.097
ACGUAGCAAUAUUACGGAUG	-4.2 ± 0.24	-2.42 ± 0.21
ACGUAGCAAUAUUACGGUGU	-2.43 ± 0.11	-1.81 ± 0.14

Sequence	self-splicing fitness (ln) (30 °C)	self-splicing fitness (ln) (37 °C)
ACGUAGCAAUAUUACGUACU	-1.11 ± 0.11	-2 ± 0.14
ACGUAGCAAUAUUACGUAUU	-3.93 ± 0.17	-2.48 ± 0.15
ACGUAGCAAUAUUACGUGGA	-3.46 ± 0.32	-2.2 ± 0.23
ACGUAGCAAUAUUACGUUAG	-3.99 ± 0.16	-2.13 ± 0.15
ACGUAGCAAUAUUACGUUCU	-2.3 ± 0.097	-0.807 ± 0.076
ACUAAGCAAUAUUACGAAAG	-1.76 ± 0.14	-1.55 ± 0.16
ACUAAGCAAUAUUACGAACC	-0.514 ± 0.16	-1.24 ± 0.24
ACUAAGCAAUAUUACGACUC	-0.352 ± 0.12	0.402 ± 0.14
ACUAAGCAAUAUUACGAUCC	-1.02 ± 0.14	-0.609 ± 0.16
ACUAAGCAAUAUUACGAUGU	-1.62 ± 0.1	-1.38 ± 0.13
ACUAAGCAAUAUUACGAUUG	-2.62 ± 0.13	-1.5 ± 0.14
ACUAAGCAAUAUUACGCAGC	-2.94 ± 0.36	-0.621 ± 0.18
ACUAAGCAAUAUUACGCCGC	-3.02 ± 0.35	-1.86 ± 0.41
ACUAAGCAAUAUUACGCCUU	-1.09 ± 0.082	-0.381 ± 0.11
ACUAAGCAAUAUUACGCGUA	-1.2 ± 0.11	-0.501 ± 0.13
ACUAAGCAAUAUUACGGAUG	-2.49 ± 0.12	-1.42 ± 0.13
ACUAAGCAAUAUUACGGCUC	-0.0701 ± 0.093	0.329 ± 0.11
ACUAAGCAAUAUUACGGUGG	-3.1 ± 0.11	-2.84 ± 0.16
ACUAAGCAAUAUUACGUAAA	-2.48 ± 0.13	-1.6 ± 0.14
ACUAAGCAAUAUUACGUACC	-1.05 ± 0.16	-0.715 ± 0.2
ACUAAGCAAUAUUACGUAGA	-3.25 ± 0.12	-1.28 ± 0.1
ACUAAGCAAUAUUACGUCUC	-2.79 ± 0.16	-0.208 ± 0.14
ACUAAGCAAUAUUACGUUAC	-3.81 ± 0.2	-3.08 ± 0.3
ACUAAGCAAUAUUACGUUCU	-0.391 ± 0.071	-0.412 ± 0.094

Sequence	self-splicing fitness (ln) (30 °C)	self-splicing fitness (ln) (37 °C)
ACUAAGCAAUAUUACGUUGC	-3.69 ± 0.27	-2.77 ± 0.22
ACUCAGCAAUAUUACGAUUC	-1.63 ± 0.087	-0.302 ± 0.1
ACUCAGCAAUAUUACGCAAU	-1.37 ± 0.078	-0.643 ± 0.093
ACUCAGCAAUAUUACGCACC	-1.19 ± 0.094	0.495 ± 0.11
ACUCAGCAAUAUUACGCAGG	-1.99 ± 0.11	-1.35 ± 0.13
ACUCAGCAAUAUUACGCCCG	-1.62 ± 0.14	-0.599 ± 0.18
ACUCAGCAAUAUUACGCCGG	-0.85 ± 0.074	-0.683 ± 0.092
ACUCAGCAAUAUUACGCUAA	-1.63 ± 0.1	-0.781 ± 0.1
ACUCAGCAAUAUUACGGAAU	-1.75 ± 0.084	-0.549 ± 0.11
ACUCAGCAAUAUUACGGACG	-0.251 ± 0.069	-0.156 ± 0.09
ACUCAGCAAUAUUACGGAGC	-3.55 ± 0.21	-1.76 ± 0.17
ACUCAGCAAUAUUACGGCUG	-2.36 ± 0.21	-2.86 ± 0.29
ACUCAGCAAUAUUACGGGAA	-0.98 ± 0.088	-0.568 ± 0.095
ACUCAGCAAUAUUACGGGCA	-0.259 ± 0.063	0.203 ± 0.084
ACUCAGCAAUAUUACGGGGA	-1.24 ± 0.074	-0.173 ± 0.082
ACUCAGCAAUAUUACGGGGG	-1.68 ± 0.11	-1.45 ± 0.14
ACUCAGCAAUAUUACGGGGU	-3.84 ± 0.19	-2.84 ± 0.2
ACUCAGCAAUAUUACGGGUC	-2.95 ± 0.16	-2.2 ± 0.17
ACUCAGCAAUAUUACGGGUG	-1.42 ± 0.063	-0.563 ± 0.077
ACUCAGCAAUAUUACGGUCU	-0.745 ± 0.057	0.311 ± 0.079
ACUCAGCAAUAUUACGGUGC	-1.69 ± 0.07	-0.59 ± 0.082
ACUCAGCAAUAUUACGUACU	-0.824 ± 0.056	-0.927 ± 0.063
ACUCAGCAAUAUUACGUAGG	-0.866 ± 0.06	-0.368 ± 0.092
ACUCAGCAAUAUUACGUCCA	-0.69 ± 0.084	-1.36 ± 0.11

Sequence	self-splicing fitness (ln) (30 °C)	self-splicing fitness (ln) (37 °C)
ACUCAGCAAUAUUACGUGCU	-2.27 ± 0.082	-2.53 ± 0.11
ACUCAGCAAUAUUACGUGUG	-1.39 ± 0.061	-1.3 ± 0.072
ACUCAGCAAUAUUACGUUCU	-0.967 ± 0.079	-0.242 ± 0.074
ACUGAGCAAUAUUACGAACU	-1.92 ± 0.13	-1.24 ± 0.16
ACUGAGCAAUAUUACGAUAC	-1.07 ± 0.29	-1.96 ± 0.33
ACUGAGCAAUAUUACGCCUA	-2.23 ± 0.17	-1.42 ± 0.18
ACUGAGCAAUAUUACGCUUA	-3.12 ± 0.38	-1.88 ± 0.2
ACUGAGCAAUAUUACGGCAC	-3.97 ± 0.37	-2.6 ± 0.29
ACUGAGCAAUAUUACGGCCU	-2.58 ± 0.23	-2.12 ± 0.25
ACUGAGCAAUAUUACGGGAC	–	-1.43 ± 0.28
ACUGAGCAAUAUUACGGGCC	-2.33 ± 0.38	-2.51 ± 0.23
ACUGAGCAAUAUUACGGUAC	-3.19 ± 0.48	–
ACUGAGCAAUAUUACGGUGG	-3.61 ± 0.16	-2.37 ± 0.18
ACUGAGCAAUAUUACGGUUC	-3.46 ± 0.19	-2.08 ± 0.21
ACUGAGCAAUAUUACGGUUU	-3.46 ± 0.17	-2.6 ± 0.11
ACUGAGCAAUAUUACGUAAA	–	-2.33 ± 0.24
ACUGAGCAAUAUUACGUAAU	-3.47 ± 0.23	-2.23 ± 0.22
ACUGAGCAAUAUUACGUCAC	-3.38 ± 0.17	-2.75 ± 0.21
ACUGAGCAAUAUUACGUCAG	-2.94 ± 0.2	-2.21 ± 0.19
ACUGAGCAAUAUUACGUGUC	-2.31 ± 0.25	-2.62 ± 0.28
ACUGAGCAAUAUUACGUGUG	-2.22 ± 0.11	-2.13 ± 0.16
ACUGAGCAAUAUUACGUGUU	-4.1 ± 0.15	-2.25 ± 0.11
ACUGAGCAAUAUUACGUUAU	-3.12 ± 0.15	-2.89 ± 0.2
ACUUAGCAAUAUUACGAAAU	-3.03 ± 0.23	-1.23 ± 0.2
